Test results published in the supplement of paper PMC7877785.
± gives the uncertainty stated by the source.

Assay: self-splicing fitness, log relative to wild type (ln ratio); higher = more splicing; Tetrahymena group I intron in knt gene, E. coli kanamycin selection, DiMSum; sequences stand for … in CUCUCU…GGAGGGAAAAGUUAUCAGGCAUGCACCUGGUAGCUAGUCUUUAAACCAAUAGAUUGCAUCGGUUUAAAAGGCAAGACCGUCAAAUUGCGGGAAAGGGGUCAACAGCCGUUCAGUACCAAGUCUCAGGGGAAACUUUGAGAUGGCCUUGCAAAGGGUAUGGUAAUAAGCUGACGGACAUGGUCCUAACCACGCAGCCAAGUCCUAAGUCAACAGAUCUUCUGUUGAUAUGGAUGCAGUUCACAGACUAAAUGUCGGUCGGGGAAGAUGUAUUCUUCUCAUAAGAUAUAGUCGGACCUCUCCUUAAUGGGAGCUAGCGGAUGAAGUGAUGCAACACUGGAGCCGCUGGGAACUAAUUUGUAUGCGAAAGUAUAUUGAUUAGUUUUGGAGUACUCGUGGUCG
Method in brief: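 A randomised library covering all eight P1ex-region intron nucleotides was built with the intron in the knt kanamycin-resistance gene on pET-22b(+) and held in E. coli BL21(DE3). Cells were grown overnight at 37°C or 30°C on LB agar, with or without 25 μg/mL kanamycin, plus 100 μg/mL carbenicillin, 50 μM IPTG and 0.2% rhamnose, and pooled colonies were amplicon-sequenced on an Illumina HiSeq 2500. DiMSum fitness is the error-weighted combination of wild-type-normalised replicate fold changes, kanamycin versus none.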

Sequence	self-splicing fitness (ln) (30 °C)	self-splicing fitness (ln) (37 °C)
AUACAGCAAUAUUACGACAG	-2.15 ± 0.14	-2.03 ± 0.15
AUACAGCAAUAUUACGAGCC	-2.64 ± 0.27	–
AUACAGCAAUAUUACGAGGA	-3.26 ± 0.19	-0.911 ± 0.12
AUACAGCAAUAUUACGCACG	-2.13 ± 0.12	-0.772 ± 0.15
AUACAGCAAUAUUACGCCCC	-1.47 ± 0.25	0.0702 ± 0.23
AUACAGCAAUAUUACGCGAC	-1.87 ± 0.14	-1.97 ± 0.22
AUACAGCAAUAUUACGCGAG	-2.35 ± 0.097	-0.829 ± 0.1
AUACAGCAAUAUUACGCGGU	-3.44 ± 0.21	-2.04 ± 0.18
AUACAGCAAUAUUACGCUUA	-1.67 ± 0.12	-0.741 ± 0.099
AUACAGCAAUAUUACGGAGG	-3.46 ± 0.21	-1.8 ± 0.19
AUACAGCAAUAUUACGGAUU	-1.82 ± 0.079	-1.24 ± 0.088
AUACAGCAAUAUUACGGCUA	0.0244 ± 0.072	0.138 ± 0.082
AUACAGCAAUAUUACGGCUU	0.0959 ± 0.047	0.115 ± 0.057
AUACAGCAAUAUUACGGUAA	-0.731 ± 0.094	-0.502 ± 0.093
AUACAGCAAUAUUACGGUCA	-0.743 ± 0.09	-0.0276 ± 0.099
AUACAGCAAUAUUACGGUCC	-1.18 ± 0.097	0.135 ± 0.11
AUACAGCAAUAUUACGGUCG	-1.08 ± 0.068	-0.545 ± 0.094
AUACAGCAAUAUUACGUAAA	-1.87 ± 0.091	-1.41 ± 0.087
AUACAGCAAUAUUACGUAAG	-0.561 ± 0.05	-0.0861 ± 0.068

Sequence	self-splicing fitness (ln) (30 °C)	self-splicing fitness (ln) (37 °C)
AUACAGCAAUAUUACGUACG	-0.772 ± 0.1	0.0144 ± 0.12
AUACAGCAAUAUUACGUAUA	-3.94 ± 0.26	-2.49 ± 0.16
AUACAGCAAUAUUACGUCGC	-2.42 ± 0.13	-3.06 ± 0.26
AUACAGCAAUAUUACGUUUC	-3.38 ± 0.19	-1.49 ± 0.2
AUACAGCAAUAUUACGUUUG	-2.93 ± 0.11	-2.35 ± 0.14
AUAGAGCAAUAUUACGAAGG	–	-1.24 ± 0.39
AUAGAGCAAUAUUACGAGUU	-2.25 ± 0.13	-1.33 ± 0.15
AUAGAGCAAUAUUACGAUCG	-1.08 ± 0.14	-1.4 ± 0.27
AUAGAGCAAUAUUACGAUGA	-2.14 ± 0.21	-1.75 ± 0.29
AUAGAGCAAUAUUACGCAAU	-0.971 ± 0.14	0.283 ± 0.2
AUAGAGCAAUAUUACGCACA	-0.178 ± 0.09	-0.032 ± 0.11
AUAGAGCAAUAUUACGCCAG	-2.27 ± 0.21	-1.14 ± 0.27
AUAGAGCAAUAUUACGCGAC	-2.44 ± 0.18	-1.3 ± 0.17
AUAGAGCAAUAUUACGCGAG	-1.54 ± 0.11	-1.26 ± 0.14
AUAGAGCAAUAUUACGCUUG	-0.549 ± 0.12	-0.411 ± 0.13
AUAGAGCAAUAUUACGGAGA	-1.97 ± 0.26	-2.31 ± 0.39
AUAGAGCAAUAUUACGGCCU	-0.822 ± 0.2	-0.365 ± 0.21
AUAGAGCAAUAUUACGGCGU	0.102 ± 0.079	0.527 ± 0.12
AUAGAGCAAUAUUACGGCUC	-0.971 ± 0.11	-0.403 ± 0.23
